Measured values from paper PMC7794242, “Cryo-EM analysis of the HCoV-229E spike glycoprotein reveals dynamic prefusion conformational changes” (Nature Communications, 2021).

Tests used:
[1] = biological target: T1, HCoV-229E S glycoprotein wild-type soluble ectodomain (residues 1-1116) with C-terminal GCN4 trimerization … (HCoV-229E, UniProt P15423 16-1116); experiment: SPR; OpenSPR; hAPN immobilised on COOH sensor chip; S trimer peak 2 sample injected at 0, 6.25, 12.5, 25 and 50 nM; HBS-EP+ buffer; 298 K; one-to-one binding model; settings: both partners purified
[2] = biological target: T1, HCoV-229E S glycoprotein wild-type …; experiment: SPR; OpenSPR; hAPN immobilised on COOH sensor chip; S trimer peak 3 sample injected at 0, 3.13, 6.25, 12.5 and 25 nM; HBS-EP+ buffer; 298 K; one-to-one binding model; settings: both partners purified

B1: human aminopeptidase N (receptor)
chain: DQSKAWNRYRLPNTLKPDSYRVTLRPYLTPNDRGLYVFKGSSTVRFTCKEATDVIIIHSKKLNYTLSQGHRVVLRGVGGSQPPDIDKTELVEPTEYLVVHLKGSLVKDSQYEMDSEFEGELADDLAGFYRSEYMEGNVRKVVATTQMQAADARKSFPCFDEPAMKAEFNITLIHPKDLTALSNMLPKGPSTPLPEDPNWNVTEFHTTPKMSTYLLAFIVSEFDYVEKQASNGVLIRIWARPSAIAAGHGDYALNVTGPILNFFAGHYDTPYPLPKSDQIGLPDFNAGAMENWGLVTYRENSLLFDPLSSSSSNKERVVTVIAHELAHQWFGNLVTIEWWNDLWLNEGFASYVEYLGADYAEPTWNLKDLMVLNDVYRVMAVDALASSHPLSTPASEINTPAQISELFDAISYSKGASVLRMLSSFLSEDVFKQGLASYLHTFAYQNTIYLNLWDHLQEAVNNRSIQLPTTVRDIMNRWTLQMGFPVITVDTSTGTLSQEHFLLDPDSNVTRPSEFNYVWIVPITSIRDGRQQQDYWLIDVRAQNDLFSTSGNEWVLLNLNVTGYYRVNYDEENWRKIQTQLQRDHSAIPVINRAQIINDAFNLASAHKVPVTLALNNTLFLIEERQYMPWEAALSSLSYFKLMFDRSEVYGPMKNYLKKQVTPLFIHFRNNTNNWREIPENLMDQYSEVNAISTACSNGVPECEEMVSGLFKQWMENPNNNPIHPNLRSTVYCNAIAQGGEEEWDFAWEQFRNATLVNEADKLRAALACSKELWILNRYLSYTLNPDLIRKQDATSTIISITNNVIGQGLVWDFVQSNWKKLFNDYGGGSFSFSNLIQAVTRRFSTEYELQQLEQFKKDNEETGFGSGTRALEQALEKTKANIKWVKENKEVVLQWFTENSK
[1]
  Kd: 36.3 nM
  koff: 0.00115 s⁻¹
  kon: 31800 M⁻¹ s⁻¹
[2]
  Kd: 6.78 nM
  koff: 0.000485 s⁻¹
  kon: 71500 M⁻¹ s⁻¹
